B1: Focal adhesion kinase 1 (Homo sapiens), Q05397 (parent)
chain: MAAAYLDPNLNHTPNSSTKTHLGTGMERSPGAMERVLKVFHYFESNSEPTTWASIIRHGDATDVRGIIQKIVDSHKVKHVACYGFRLSHLRSEEVHWLHVDMGVSSVREKYELAHPPEEWKYELRIRYLPKGFLNQFTEDKPTLNFFYQQVKSDYMLEIADQVDQEIALKLGCLEIRRSYWEMRGNALEKKSNYEVLEKDVGLKRFFPKSLLDSVKAKTLRKLIQQTFRQFANLNREESILKFFEILSPVYRFDKECFKCALGSSWIISVELAIGPEEGISYLTDKGCNPTHLADFTQVQTIQYSNSEDKDRKGMLQLKIAGAPEPLTVTAPSLTIAENMADLIDGYCRLVNGTSQSFIIRPQKEGERALPSIPKLANSEKQGMRTHAVSVSETDDYAEIIDEEDTYTMPSTRDYEIQRERIELGRCIGEGQFGDVHQGIYMSPENPALAVAIKTCKNCTSDSVREKFLQEALTMRQFDHPHIVKLIGVITENPVWIIMELCTLGELRSFLQVRKYSLDLASLILYAYQLSTALAYLESKRFVHRDIAARNVLVSSNDCVKLGDFGLSRYMEDSTYYKASKGKLPIKWMAPESINFRRFTSASDVWMFGVCMWEILMHGVKPFQGVKNNDVIGRIENGERLPMPPNCPPTLYSLMTKCWAYDPSRRPRFTELKAQLSTILEEEKAQQEERMRMESRRQATVSWDSGGSDEAPPKPSRPGYPSPRSSEGFYPSPQHMVQTNHYQVSGYPGSHGITAMAGSIYPGQASLLDQTDSWNHRPQEIAMWQPNVEDSTVLDLRGIGQVLPTHLMEERLIRQQQEMEEDQRWLEKEERFLKPDVRLSRGSIDREDGSLQGPIGNQHIYQPVGKPDPAAPPKKPPRPGAPGHLGSLASLSSPADSYNEGVKLQPQEISPPPTANLDRSNDKVYENVTGLVKAVIEMSSKIQPAPPEEYVPMVKEVGLALRTLLATVDETIPLLPASTHREIEMAQKLLNSDLGELINKMKLAQQYVMTSLQQEYKKQMLTAAHALAVDAKNLLDVIDQARLKMLGQTRPH

Assays:
paxi_human PXN, P49023 = variants of: B1; details: with paxi_human PXN
[1] = variants of: B1; details: with tgfi1_mouse Tgfb1i1, Q62219
tgfi1_mouse Tgfb1i1, Q62219, sequence (Q62219 whole entry): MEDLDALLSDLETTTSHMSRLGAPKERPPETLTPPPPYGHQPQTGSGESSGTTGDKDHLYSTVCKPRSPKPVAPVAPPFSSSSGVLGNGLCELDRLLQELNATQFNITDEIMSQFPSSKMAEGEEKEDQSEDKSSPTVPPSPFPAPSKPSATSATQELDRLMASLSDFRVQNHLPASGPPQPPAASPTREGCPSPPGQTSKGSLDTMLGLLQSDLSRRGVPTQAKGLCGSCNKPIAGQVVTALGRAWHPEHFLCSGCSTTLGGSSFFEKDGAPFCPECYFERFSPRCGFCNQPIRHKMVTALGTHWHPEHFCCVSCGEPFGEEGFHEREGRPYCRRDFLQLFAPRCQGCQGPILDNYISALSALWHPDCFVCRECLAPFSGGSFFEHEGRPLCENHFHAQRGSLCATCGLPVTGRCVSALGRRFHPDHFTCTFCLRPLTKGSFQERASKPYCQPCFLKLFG

paxi_human PXN, P49023, sequence (P49023 whole entry): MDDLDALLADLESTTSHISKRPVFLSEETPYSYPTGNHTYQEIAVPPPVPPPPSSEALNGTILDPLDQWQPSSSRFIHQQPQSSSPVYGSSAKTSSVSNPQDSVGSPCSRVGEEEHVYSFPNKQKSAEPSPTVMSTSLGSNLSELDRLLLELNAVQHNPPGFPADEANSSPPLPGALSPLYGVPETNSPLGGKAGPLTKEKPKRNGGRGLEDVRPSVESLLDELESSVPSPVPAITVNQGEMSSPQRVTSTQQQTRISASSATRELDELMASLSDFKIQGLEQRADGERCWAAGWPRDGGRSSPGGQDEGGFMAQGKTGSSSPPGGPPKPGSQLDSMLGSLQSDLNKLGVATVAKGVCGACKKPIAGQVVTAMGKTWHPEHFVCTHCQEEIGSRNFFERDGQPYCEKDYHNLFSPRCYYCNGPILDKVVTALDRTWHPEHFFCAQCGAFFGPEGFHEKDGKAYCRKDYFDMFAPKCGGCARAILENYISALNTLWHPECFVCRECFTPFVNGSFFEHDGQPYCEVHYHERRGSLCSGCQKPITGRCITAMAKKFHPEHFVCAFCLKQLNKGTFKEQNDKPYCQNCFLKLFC

Row | effect of a mutation on the interaction (paxi_human PXN, P49023) | effect of a mutation on the interaction [1] | Variant
1 | disrupting interaction | disrupting interaction | V928G
2 | disrupting interaction | disrupting interaction | L1034S

From IntAct's records for PubMed 9756887
